From IntAct's records for PubMed 27978489

B1: T-cell immunoreceptor with Ig and ITIM domains (Homo sapiens), Q495A1 (parent)
chain: MRWCLLLIWAQGLRQAPLASGMMTGTIETTGNISAEKGGSIILQCHLSSTTAQVTQVNWEQQDQLLAICNADLGWHISPSFKDRVAPGPGLGLTLQSLTVNDTGEYFCIYHTYPDGTYTGRIFLEVLESSVAEHGARFQIPLLGAMAATLVVICTAVIVVVALTRKKKALRIHSVEGDLRRKSAGQEEWSPSAPSPPGSCVQAEAAPAGLCGEQRGEDCAELHDYFNVLSYRSLGNCSFFTETG

Variants of: B1
Details: with nect2_human NECTIN2, Q92692
nect2_human NECTIN2, Q92692, sequence (Q92692 whole entry): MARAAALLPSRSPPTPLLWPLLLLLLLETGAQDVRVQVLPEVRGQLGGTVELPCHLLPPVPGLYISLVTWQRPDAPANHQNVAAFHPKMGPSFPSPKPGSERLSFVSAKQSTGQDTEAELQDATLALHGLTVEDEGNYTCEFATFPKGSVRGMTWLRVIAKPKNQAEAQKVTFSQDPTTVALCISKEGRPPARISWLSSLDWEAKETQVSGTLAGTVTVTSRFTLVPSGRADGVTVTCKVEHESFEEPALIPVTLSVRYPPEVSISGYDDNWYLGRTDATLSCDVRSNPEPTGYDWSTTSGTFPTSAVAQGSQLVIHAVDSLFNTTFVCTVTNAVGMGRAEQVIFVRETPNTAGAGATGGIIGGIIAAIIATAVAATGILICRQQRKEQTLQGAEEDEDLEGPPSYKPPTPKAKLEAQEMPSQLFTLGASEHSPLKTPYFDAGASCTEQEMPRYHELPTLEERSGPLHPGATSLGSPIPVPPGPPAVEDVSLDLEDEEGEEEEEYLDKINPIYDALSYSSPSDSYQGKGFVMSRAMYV

Effect of a mutation on the interaction, decreasing interaction strength:
MRWCLLLIWAQGLRQAPLASGMMTGTIETTGNISAEKGGSIILQCHLSSTTAQVTQVNWEQQDQLLAICNADLGWHISPSFKDRVAPGPGLGLTLQSLTVNDTGEYFCIYHAYPDGTYTGRIFLEVLESSVAEHGARFQIPLLGAMAATLVVICTAVIVVVALTRKKKALRIHSVEGDLRRKSAGQEEWSPSAPSPPGSCVQAEAAPAGLCGEQRGEDCAELHDYFNVLSYRSLGNCSFFTETG [T112A]
MRWCLLLIWAQGLRQAPLASGMMTGTIETTGNISAEKGGSIILQCHLSSTTAQVTQVNWEQQDQLLAICNADLGWHISPSFKDRVAPGPGLGLTLQSLTVNDTGEYFCIYHTAPDGTYTGRIFLEVLESSVAEHGARFQIPLLGAMAATLVVICTAVIVVVALTRKKKALRIHSVEGDLRRKSAGQEEWSPSAPSPPGSCVQAEAAPAGLCGEQRGEDCAELHDYFNVLSYRSLGNCSFFTETG [Y113A]
MRWCLLLIWAQGLRQAPLASGMMTGTIETTGNISAEKGGSIILQCHLSSTTAQVTQVNWEQQDQLLAICNADLGWHISPSFKDRVAPGPGLGLTLQSLTVNDTGEYFCIYHTYADGTYTGRIFLEVLESSVAEHGARFQIPLLGAMAATLVVICTAVIVVVALTRKKKALRIHSVEGDLRRKSAGQEEWSPSAPSPPGSCVQAEAAPAGLCGEQRGEDCAELHDYFNVLSYRSLGNCSFFTETG [P114A]
